B1: rOaAEP1b: recombinant Oldenlandia affinis asparaginyl endopeptidase OaAEP1b expressed in E. coli, activated (protein)
chain: MVRYLAGAVLLLVVLSVAAAVSGARDGDYLHLPSEVSRFFRPQETNDDHGEDSVGTRWAVLIAGSKGYANYRHQAGVCHAYQILKRGGLKDENIVVFMYDDIAYNESNPRPGVIINSPHGSDVYAGVPKDYTGEEVNAKNFLAAILGNKSAITGGSGKVVDSGPNDHIFIYYTDHGAAGVIGMPSKPYLYADELNDALKKKHASGTYKSLVFYLEACESGSMFEGILPEDLNIYALTSTNTTESSWCYYCPAQENPPPPEYNVCLGDLFSVAWLEDSDVQNSWYETLNQQYHHVDKRISHASHATQYGNLKLGEEGLFVYMGSNPANDNYTSLDGNALTPSSIVVNQRDADLLHLWEKFRKAPEGSARKEVAQTQIFKAMSHRVHIDSSIKLIGKLLFGIEKCTEILNAVRPAGQPLVDDWACLRSLVGTFETHCGSLSEYGMRHTRTIANICNAGISEEQMAEAASQACASIP
modifications: Oldenlandia affinis OaAEP1b
B2: rhuLEG: recombinant human legumain (R&D systems), an AEP that preferentially functions as a hydrolase (protein, UniProt Q99538 18-323, looked up)
Legumain: VPIDDPEDGGKHWVVIVAGSNGWYNYRHQADACHAYQIIHRNGIPDEQIVVMMYDDIAYSEDNPTPGIVINRPNGTDVYQGVPKDYTGEDVTPQNFLAVLRGDAEAVKGIGSGKVLKSGPQDHVFIYFTDHGSTGILVFPNEDLHVKDLNETIHYMYKHKMYRKMVFYIEACESGSMMNHLPDNINVYATTAANPRESSYACYYDEKRSTYLGDWYSVNWMEDSDVEDLTKETLHKQYHLVKSHTNTSHVMQYGNKTISTMKVMQFQGMKRKASSPVPLPPVTHLDLTPSPDVPLTIMKRKLMNTN

How the values were obtained:
[1] = test system: rOaAEP1b, rOaAEP3, rOaAEP4 and rOaAEP5; assay: Intermolecular ligation assay with recombinant AEPs; type: biochemical, Oldenlandia affinis; conditions: target 140 μM, ligation partner GLK-biotin 700 μM, enzymes 19.7 μg mL^−1, 6 h, MALDI-MS
Procedure: Target peptides (140 μM) were incubated with a ligation partner peptide (700 μM) and a recombinant AEP (rOaAEP1b, rOaAEP3, rOaAEP4 or rOaAEP5 at 19.7 μg mL^−1 total protein) in activity buffer (50 mM sodium acetate, 50 mM NaCl, 1 mM EDTA, 0.5 μM TCEP, pH 5). The reaction was allowed to proceed for up to 22 hours at room temperature and was analysed by MALDI MS or electrospray ionisation (ESI) mass spectrometry as appropriate.
(§1) Cyclization or inter-molecular ligation of linear target peptides was monitored by MALDI or ESI MS. In both cases, the reaction mixture (5-50 μL) was de-salted using C18 zip tips (Millipore) and eluted in 4 μL 50-75% v/v acetonitrile, 0.1% v/v trifluoroacetic acid (TFA).
(§2) For MALDI MS, a saturated MALDI matrix solution (α-cyano-4-hyroxycinnamic acid, CHCA, Bruker) prepared in 95% v/v acetonitrile, 0.1% v/v TFA was diluted 1:22 such that the final matrix solution comprised 90% v/v acetonitrile, 0.1% v/v TFA and 1 mM NH4H2PO4. Eluted samples were mixed 1:4 with the MALDI matrix, spotted onto a MALDI plate and analyzed by an Ultraflex III TOF/TOF (Bruker) in positive reflector mode. Data were analyzed using the flexAnalysis program (Bruker).
(§3) For ESI MS, 96 μl of 75% v/v acetonitrile, 01% v/v TFA was added to the de-salted sample. The sample was then injected into a MicroTOF Q (Bruker) and data was collected in positive ionisation mode. The mass of ligated or cyclized product was determined by charge deconvolution using the Compass DataAnalysis program (Bruker).
To investigate the ability of recombinantly produced AEPs to perform inter-molecular ligation (as well as the intra-molecular ligation required to produce backbone-cyclized peptides), target peptides were incubated with ligation partner peptides as well as active enzyme (FIG. 11). The appearance of new linear peptides were tracked. […]

[2] = test system: rOaAEP1b, rOaAEP3, rOaAEP4 and rOaAEP5; assay: Cyclization assay with rOaAEP1b, rOaAEP3, rOaAEP4 and rOaAEP5 (MALDI/ESI MS); type: biochemical, Oldenlandia affinis; conditions: peptides with added AEP recognition residues, 280 μM, enzymes 19.7 μg mL^−1 total protein, MS
Procedure: Linear target peptides (280 μM, unless otherwise indicated) were incubated with rOaAEP1b, rOaAEP3, rOaAEP4 or rOaAEP5 (total protein concentration as indicated in the description of figures) in activity buffer (50 mM sodium acetate, 50 mM NaCl, 1 mM ethylenediaminetetraacetic acid [EDTA], 0.5 μM Tris(2-carboxyethyl)phosphine hydrochloride [TCEP], pH 5). The reaction was allowed to proceed for up to 22 hours at room temperature and was analysed by matrix-assisted laser desorption/ionization mass spectrometry (MALDI MS), high performance liquid chromatography (HPLC) or nuclear magnetic resonance (NMR) as appropriate.
as §1, §2, §3
The ability of activated AEPs (rOaAEP1b, rOaAEP3, rOaAEP4 and rOaAEP5) to cyclize peptide substrates structurally unrelated to cyclotides was tested in the cyclization assay described in the Materials and Methods. The anti-malarial peptide R1 (Harris et al. (2009) J Biol Chem 284(14):9361-9371; Harris et al. (2005) Infect Immun 73(10):6981-6989); Bac2A, a linear derivative of the bovine peptide bactenecin (Wu and Hancock (1999) Antimicrob Agents Ch 43:1274-1276); and the anti-fungal peptide EcAMP1 (Nolde et al. (2011) J Biol Chem 286(28):25145-25153) were produced with additional AEP recognition residues and used as the substrates.
To investigate the sequence requirements for in vitro cyclization, R1 was used as a model peptide. The recognition residues added to this model peptide were sequentially trimmed to determine the minimal requirements for AEP-mediated cyclization. The N- and C-terminal recognition residues were also substituted with alternate amino acids to determine if particular classes of residues were preferred for cyclization by these recombinant AEPs. The ability of activated AEPs (rOaAEP1b, rOaAEP3, rOaAEP4 and rOaAEP5) to cyclize the R1 peptide with varied flanking sequences was then tested in the cyclization assay described in the Materials and Methods (FIG. 10; Table 3).

[3] = test system: target peptide-linker-ubiquitin-6xHis fusion protein; assay: AEP-mediated processing of target peptides fused to ubiquitin; type: biochemical; conditions: kalata B1-ubiquitin 260 μg mL^−1, AEP 19.7 μg mL^−1 total protein, 22 h, SDS-PAGE/anti-6xHis Western blot
[4] = Protease activity against fluorogenic substrate Z-AAN-MCA; type: biochemical; conditions: enzyme ~5 μg mL^−1 total protein, Z-AAN-MCA 100 μM, 37° C., 60 minutes
Procedure: FIG. 15 is a graphical representation of the activity of recombinant O. affinis AEPs (˜5 μg mL^−1 total protein) and rhuLEG (1 μg mL^−1 total protein) over time against the fluorogenic substrate Z-AAN-MCA (100 μM). Activity is tracked at 1 minute intervals at 37° C. for 60 minutes using excitation and emission wavelengths of 360 and 460 nm respectively. A single representative experiment is shown. RFU, relative fluorescence units.
To assay activity of recombinant AEPs (rOaAEP1b, rOaAEP3, rOaAEP4 or rOaAEP5) against both internally-quenched and other fluorescent peptides, substrate and enzyme were diluted as appropriate in activity buffer (50 mM sodium acetate, 50 mM NaCl, 1 mM EDTA, 0.5 μM TCEP, pH 5). To assay activity of recombinant human legumain (rhuLEG; R&D systems) against the same substrates, the enzyme was first activated by incubation in 50 mM sodium acetate, 100 mM NaCl, pH 4 (4 μL buffer/1 μL enzyme) for 2 hours at 37° C. Substrates and activated rhuLEG were diluted in 50 mM acetate, 0.1% v/v triton X 100, 0.5 μM TCEP pH 5.5 or in 50 mM MES, 250 mM NaCl, pH 5 as required. Diluted enzyme and substrate were added to black, flat bottomed microtiter plates in a total assay volume of 100-200 μL. The change in fluorescence intensity over time was monitored on a SpectraMax M2 (Molecular Devices) using excitation/emission wavelengths of 320/420 nm (IQF peptides) or 360/460 nm (other fluorescent peptides).
AEP activity has traditionally been tracked by monitoring cleavage of the fluorescent substrate Z-AAN-MCA (where Z is carboxybenzyl; MCA is 7-amido-4-methylcoumarin) [Saska et al. (2007) supra; Rotari et al. (2001) Biol. Chem. 382:953-959]. Cleavage C-terminal to the Asn liberates the fluorophore which then fluoresces to report substrate cleavage. […] They are Ac-YVAD-CHO, which is routinely used to identify AEP activity (Hatsugai et al. (2004) Science 305(5685): 855-858) and Ac-STRN-CHO, which represents the P1-P4 residues of the C-terminal kB1 cleavage site. These traditional routes of identifying AEP activity will therefore likely be ineffective for identification of AEPs with cyclizing ability.

[5] = Protease activity against IQF peptides; type: biochemical; conditions: for P2′ substrate specificity (wt vs L31A IQF peptide): 50 μM IQF peptides, 37° C., initial velocity
Procedure: FIG. 3 is a graphical representation showing expression of active rOaAEP1b in E. coli. (A) Pooled rOaAEP1b-containing anion exchange fractions pre- and post-activation at low pH were diluted 1:14 and tested for activity against the wildtype internally quenched fluorescence (wtIQF) peptide (11 μM) [SEQ ID NO:21]. Baseline fluorescence from a no-substrate control has been subtracted and the relative fluorescence intensity (RFU) at t=90 minutes is reported. A single representative experiment of two technical replicates is shown. (B) Activated rOaAEP1b was captured by cation exchange and the final product analyzed by SDS-PAGE followed by (i) Instant blue staining and (ii) Western blotting with anti-AEP1b polyclonal rabbit serum.
FIGS. 17A and 17B are graphical representations of substrate specificity of plant and human AEPs for wt (SEQ ID NO:21) and L31A (SEQ ID NO:25) IQF peptide substrates. Initial velocity of recombinant O. affinis AEPs (˜10 μg mL^−1 total protein) (17A) and rhuLEG (1.1 μg mL^−1 total protein) (17B) against 50 μM IQF peptide substrates is shown. The assay was conducted at 37° C. The average of two technical replicates are shown and the error bars report the range.
To assay activity of recombinant AEPs (rOaAEP1b, rOaAEP3, rOaAEP4 or rOaAEP5) against both internally-quenched and other fluorescent peptides, substrate and enzyme were diluted as appropriate in activity buffer (50 mM sodium acetate, 50 mM NaCl, 1 mM EDTA, 0.5 μM TCEP, pH 5). […] The change in fluorescence intensity over time was monitored on a SpectraMax M2 (Molecular Devices) using excitation/emission wavelengths of 320/420 nm (IQF peptides) or 360/460 nm (other fluorescent peptides). […]
IQF peptides that incorporate the P1-P4 as well as the P1′-P4′ residues are, however, effectively targeted by recombinant O. affinis AEPs. These peptides contain a fluorescence donor/quencher pair, with fluorescence observed upon the spatial separation of this pair following enzymatic cleavage. […]

| Molecule | inter-molecular ligation, C-terminal labelling [1] | cyclization of linear precursor peptide by recombinant AEPs [2] | proportion of fusion protein enzymatically processed (loss of precursor) [3] | activity against Z-AAN-MCA [4] | P2′ substrate specificity (wt vs L31A IQF peptide) [5] | activity against IQF peptide following low pH activation ([5]; wt IQF peptide 11 μM, fractions diluted 1:14, 90 minutes, pre- vs post-activation) |
| --- | --- | --- | --- | --- | --- | --- |
| GKVFAEFLPLFSKFGSRMHILKNGL (Target peptide; R1) [SEQ ID NO:83, R1 peptide derivative] | created a new linear peptide that incorporated a C-terminal biotin | poor substrate for backbone cyclization |  |  |  |  |
| B1 |  |  | the bulk of the precursor was being enzymatically processed | nor rOaAEP1b, rOaAEP3, rOaAEP4 or rOaAEP5 (FIG. 15) had detectable activity | preference for a bulky hydrophobic residue such as Leu at the P2′ position | dramatically increased |
| B2 |  |  |  |  | not shared |  |

— patent US20190225652A1, “GENERATION OF PEPTIDES” (Hexima Limited, priority 2015, published 2019)
